Patent US20190144517A1 (SHANGHAI JW INFLINHIX, published 2019)

Target: T1, TNF receptors on L929 cells (mouse, UniProt P25118 30-454)
T1 construct: whole, on cells; The result text says 'TNF receptors'; the staining used an anti-TNFR1 antibody; also called cell surface receptors; TNFR1
T1 sequence (looked up): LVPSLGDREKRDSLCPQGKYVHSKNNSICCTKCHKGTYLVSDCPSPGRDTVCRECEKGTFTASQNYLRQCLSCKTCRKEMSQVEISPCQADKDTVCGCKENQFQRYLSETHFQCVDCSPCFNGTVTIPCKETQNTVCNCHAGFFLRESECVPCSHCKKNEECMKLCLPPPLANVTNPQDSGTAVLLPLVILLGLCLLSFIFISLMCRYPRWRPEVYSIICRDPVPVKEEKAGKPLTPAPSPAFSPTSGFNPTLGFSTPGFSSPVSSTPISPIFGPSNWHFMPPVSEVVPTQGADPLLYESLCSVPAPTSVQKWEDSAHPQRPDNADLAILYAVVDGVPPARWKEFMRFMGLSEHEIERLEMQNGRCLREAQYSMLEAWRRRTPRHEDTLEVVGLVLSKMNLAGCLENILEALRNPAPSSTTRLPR
Assay: confocal immunofluorescence on L929 cells
Method: The cells were fixed with 4% paraformaldehyde (PBS formulation) were for 10 minutes, blocked with phosphate buffer containing 0.5% BSA and 0.1% cold water fish gelatin for 15 minutes, and then incubated with rabbit anti-TNFR1 antibody (Abeam) for 1 hour. The cells were washed with PBS and then incubated with the relevant secondary antibody coupled to Alexa Fluor 488 or Alexa Fluor 568 (Invitrogen). Then the sample washed with PBS was mounted with Gelvatol/DABCO (Sigma-Aldrich). DNA was counterstained with DAPI (Sigma-Aldrich). All samples were analyzed by fluorescence microscopy at 60× using Nikon Eclipse 80i. Images were taken with NIS-Elements AR3.0 software using Hamamatsu camera.

binding result: no binding (tested: 2 µg/ml)
B1: monoclonal antibody 244-12 (antibody, mouse IgG2b, kappa, V domains shown)
VH: QIQLVQSGPELKKPGETVKISCKASGYTFTNYGMNWVKQAPGKGLKWMGWINTYTGEPTYADDFKGRFAFSLETSANTAYLQINNLRNEGMATYFCARHYRYAWFPYWGQGTLVTVSA
VL: DIQMTQSPASLSASVGETVTITCRASGNIHIYLAWYQQKQGKSPQLLVYNAKTLADGVPSRFSGSGSGTQYSLKINSLQPEDFGSYYCQHFWSIPWTFGGGTKLEIKR
notes: It was detected with an anti-mouse IgG secondary antibody
